Data: publication PMC9482650, “Quantitative fragmentomics allow affinity mapping of interactomes” (Nature Communications, 2022)
Values belong to the binder of their own block, whether it stands above or below them.

Tests used:
Assay in all cases: holdup assay
Parameters in all cases: key: below the threshold = too weak to quantify, mostly under pKd 3.1 to 4
Inadl_6, Q8NI35 = target: Inadl_6, Q8NI35
SIPA1L2, Q9P2F8 = target: T1, SIPA1L2, Q9P2F8
T1 sequence (Q9P2F8 945-1036, limits assumed, looked up): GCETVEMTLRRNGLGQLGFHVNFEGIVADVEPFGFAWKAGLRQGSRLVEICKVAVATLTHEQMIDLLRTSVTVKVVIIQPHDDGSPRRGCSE

RADIL, Q96JH8 = target: T2, RADIL, Q96JH8
T2 sequence (Q96JH8 971-1071, limits assumed, looked up): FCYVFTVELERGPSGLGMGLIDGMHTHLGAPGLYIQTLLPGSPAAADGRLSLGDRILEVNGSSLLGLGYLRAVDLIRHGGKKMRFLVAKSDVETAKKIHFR

GRIP2_6, Q9C0E4 = target: GRIP2_6, Q9C0E4
Chain of GRIP2_6, Q9C0E4 (Q9C0E4 648-740): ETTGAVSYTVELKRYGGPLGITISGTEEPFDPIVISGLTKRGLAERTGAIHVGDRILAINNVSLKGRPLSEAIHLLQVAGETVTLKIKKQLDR

LRRC7, Q96NW7 = target: T3, LRRC7, Q96NW7
T3 sequence (Q96NW7 1440-1537, limits assumed, looked up): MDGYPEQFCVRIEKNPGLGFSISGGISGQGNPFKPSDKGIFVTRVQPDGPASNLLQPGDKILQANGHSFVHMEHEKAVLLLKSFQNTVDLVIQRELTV

CARD11, Q9BXL7 = target: T4, CARD11, Q9BXL7
T4 sequence (Q9BXL7 662-765, limits assumed, looked up): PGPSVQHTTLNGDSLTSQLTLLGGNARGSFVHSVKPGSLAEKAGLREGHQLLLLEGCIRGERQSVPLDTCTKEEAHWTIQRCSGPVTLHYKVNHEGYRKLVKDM

GRIP1_3, Q9Y3R0 = target: T5, GRIP1_3, Q9Y3R0
T5 sequence (Q9Y3R0 247-346, limits assumed, looked up): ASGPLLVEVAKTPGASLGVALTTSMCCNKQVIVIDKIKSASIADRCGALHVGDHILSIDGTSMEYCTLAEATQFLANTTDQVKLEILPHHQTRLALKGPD

DFNB31_1, Q9P202 = target: T6, DFNB31_1, Q9P202
T6 sequence (Q9P202 135-233, limits assumed, looked up): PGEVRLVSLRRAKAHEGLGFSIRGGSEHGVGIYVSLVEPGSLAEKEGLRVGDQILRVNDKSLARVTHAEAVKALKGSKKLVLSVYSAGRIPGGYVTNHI

TJP1_3, Q07157 = target: TJP1_3, Q07157
Chain of TJP1_3, Q07157 (Q07157 416-512): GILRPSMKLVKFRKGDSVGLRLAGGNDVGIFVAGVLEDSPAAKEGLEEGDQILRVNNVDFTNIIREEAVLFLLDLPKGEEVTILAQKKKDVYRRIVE

DLG3_2, Q92796 = target: T7, DLG3_2, Q92796
T7 sequence (Q92796 221-321, limits assumed, looked up): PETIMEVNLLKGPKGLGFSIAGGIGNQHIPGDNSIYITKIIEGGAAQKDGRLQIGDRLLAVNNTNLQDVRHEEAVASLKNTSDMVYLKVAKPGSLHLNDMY

GRIP2_5, Q9C0E4 = target: GRIP2_5, Q9C0E4
Chain of GRIP2_5, Q9C0E4 (Q9C0E4 544-642): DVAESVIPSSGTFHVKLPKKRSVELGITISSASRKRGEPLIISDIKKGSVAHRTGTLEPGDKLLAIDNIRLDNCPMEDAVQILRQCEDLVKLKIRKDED

SYNJ2BP, P57105 = target: T8, SYNJ2BP, P57105
T8 sequence (P57105 8-110, limits assumed, looked up): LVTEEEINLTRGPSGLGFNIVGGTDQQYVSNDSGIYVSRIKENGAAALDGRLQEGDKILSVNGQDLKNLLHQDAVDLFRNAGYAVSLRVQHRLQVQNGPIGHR

FRMPD2_3, Q68DX3 = target: FRMPD2_3, Q68DX3
Chain of FRMPD2_3, Q68DX3 (Q68DX3 1073-1166): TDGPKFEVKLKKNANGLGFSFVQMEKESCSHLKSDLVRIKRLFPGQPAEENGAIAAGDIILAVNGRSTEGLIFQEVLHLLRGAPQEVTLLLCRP

SNX27, Q96L92 = target: SNX27, Q96L92
ARHGEF11, O15085 = target: T9, ARHGEF11, O15085
T9 sequence (O15085 42-136, limits assumed, looked up): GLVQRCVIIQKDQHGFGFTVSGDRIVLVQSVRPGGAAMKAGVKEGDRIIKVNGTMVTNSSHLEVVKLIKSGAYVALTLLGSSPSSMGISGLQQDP

NHERF4_2, Q86UT5 = target: NHERF4_2, Q86UT5
Chain of NHERF4_2, Q86UT5 (Q86UT5 220-308): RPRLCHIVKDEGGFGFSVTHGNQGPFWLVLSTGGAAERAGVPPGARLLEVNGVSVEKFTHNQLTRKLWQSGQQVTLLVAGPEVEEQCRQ

Inadl_1, Q8NI35 = target: Inadl_1, Q8NI35
Chain of Inadl_1, Q8NI35 (Q8NI35 113-229): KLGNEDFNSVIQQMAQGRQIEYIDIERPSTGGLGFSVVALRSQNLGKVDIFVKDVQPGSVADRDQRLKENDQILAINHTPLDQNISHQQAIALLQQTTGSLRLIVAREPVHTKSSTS

MPP7, Q5T2T1 = target: T10, MPP7, Q5T2T1
T10 sequence (Q5T2T1 134-230, limits assumed, looked up): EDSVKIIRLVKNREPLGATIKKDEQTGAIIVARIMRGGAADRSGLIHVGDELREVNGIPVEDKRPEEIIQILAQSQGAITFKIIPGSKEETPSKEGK

MAGI2_2, Q86UL8 = target: MAGI2_2, Q86UL8
Chain of MAGI2_2, Q86UL8 (Q86UL8 410-522): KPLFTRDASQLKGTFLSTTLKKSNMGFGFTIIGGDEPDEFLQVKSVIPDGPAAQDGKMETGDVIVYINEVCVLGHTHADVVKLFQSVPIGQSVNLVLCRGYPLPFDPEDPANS

HTRA1, Q92743 = target: HTRA1, Q92743
Chain of HTRA1, Q92743 (Q92743 360-477): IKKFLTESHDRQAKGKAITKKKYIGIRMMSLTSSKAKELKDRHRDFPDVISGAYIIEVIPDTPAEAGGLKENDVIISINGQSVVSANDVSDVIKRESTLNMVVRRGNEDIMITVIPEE

DLG3_3, Q92796 = target: T11, DLG3_3, Q92796
T11 sequence (Q92796 374-475, limits assumed, looked up): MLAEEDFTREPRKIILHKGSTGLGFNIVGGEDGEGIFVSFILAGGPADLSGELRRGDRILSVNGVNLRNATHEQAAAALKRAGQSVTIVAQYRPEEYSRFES

MPDZ_5, O75970 = target: T12, MPDZ_5, O75970
T12 sequence (O75970 695-796, limits assumed, looked up): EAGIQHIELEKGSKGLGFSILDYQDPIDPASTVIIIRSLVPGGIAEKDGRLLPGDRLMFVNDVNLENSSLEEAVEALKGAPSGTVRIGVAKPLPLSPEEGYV

RHPN1, Q8TCX5 = target: T13, RHPN1, Q8TCX5
T13 sequence (Q8TCX5 508-602, limits assumed, looked up): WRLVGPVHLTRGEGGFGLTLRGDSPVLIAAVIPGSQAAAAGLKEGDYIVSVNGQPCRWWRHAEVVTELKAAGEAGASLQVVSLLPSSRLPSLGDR

ARHGEF12, Q9NZN5-2 = target: ARHGEF12, Q9NZN5-2
Chain of ARHGEF12, Q9NZN5-2 (Q9NZN5 other isoform, or with tags, fused parts or gaps): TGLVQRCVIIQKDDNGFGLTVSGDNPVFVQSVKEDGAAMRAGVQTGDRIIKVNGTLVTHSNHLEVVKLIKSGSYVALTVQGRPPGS

[1] = plain residues with an end cap or a label only (N-terminal biotin on a linker: ahx)
[2] = plain residues with an end cap or a label only (N-terminal biotin on a linker: ado-ado)

Chain of Inadl_6, Q8NI35 (Q8NI35 1058-1167): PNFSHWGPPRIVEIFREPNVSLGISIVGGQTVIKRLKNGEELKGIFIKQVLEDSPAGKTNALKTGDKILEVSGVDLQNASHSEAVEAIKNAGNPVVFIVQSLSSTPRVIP

pKd (Inadl_6, Q8NI35; [1]): below the threshold
pKd (SIPA1L2, Q9P2F8; [1]): below the threshold
pKd (RADIL, Q96JH8; [1]): below the threshold
pKd (GRIP2_6, Q9C0E4; [1]): below the threshold
pKd (LRRC7, Q96NW7; [1]): below the threshold
pKd (CARD11, Q9BXL7; [1]): below the threshold
pKd (GRIP1_3, Q9Y3R0; [1]): below the threshold
pKd (DFNB31_1, Q9P202; [1]): below the threshold
pKd (TJP1_3, Q07157; [1]): below the threshold
pKd (DLG3_2, Q92796; [1]): below the threshold
pKd (GRIP2_5, Q9C0E4; [1]): below the threshold
pKd (SYNJ2BP, P57105; [1]): 4.26
pKd (FRMPD2_3, Q68DX3; [1]): below the threshold
pKd (SNX27, Q96L92; [1]): 4.03
pKd (ARHGEF11, O15085; [1]): 4.38
pKd (NHERF4_2, Q86UT5; [1]): below the threshold
pKd (Inadl_1, Q8NI35; [1]): below the threshold
pKd (MPP7, Q5T2T1; [1]): below the threshold
pKd (MAGI2_2, Q86UL8; [1]): 4.18
pKd (HTRA1, Q92743; [1]): below the threshold
pKd (DLG3_3, Q92796; [1]): 3.85
pKd (MPDZ_5, O75970; [1]): below the threshold
pKd (RHPN1, Q8TCX5; [1]): 3.79
pKd (ARHGEF12, Q9NZN5-2; [1]): 4.79
Binder: TQKFRASTAL [FRMPD1, Q5SYB0]

pKd (Inadl_6, Q8NI35; [2]): below the threshold
pKd (SIPA1L2, Q9P2F8; [2]): below the threshold
pKd (RADIL, Q96JH8; [2]): below the threshold
pKd (GRIP2_6, Q9C0E4; [2]): below the threshold
pKd (LRRC7, Q96NW7; [2]): 4.15
pKd (CARD11, Q9BXL7; [2]): below the threshold
pKd (GRIP1_3, Q9Y3R0; [2]): below the threshold
pKd (DFNB31_1, Q9P202; [2]): 3.75
pKd (TJP1_3, Q07157; [2]): below the threshold
pKd (DLG3_2, Q92796; [2]): 5.19
pKd (GRIP2_5, Q9C0E4; [2]): below the threshold
pKd (SYNJ2BP, P57105; [2]): 5.35
pKd (FRMPD2_3, Q68DX3; [2]): below the threshold
pKd (SNX27, Q96L92; [2]): 4.65
pKd (ARHGEF11, O15085; [2]): 4
pKd (NHERF4_2, Q86UT5; [2]): below the threshold
pKd (Inadl_1, Q8NI35; [2]): below the threshold
pKd (MPP7, Q5T2T1; [2]): below the threshold
pKd (MAGI2_2, Q86UL8; [2]): 4.56
pKd (HTRA1, Q92743; [2]): below the threshold
pKd (DLG3_3, Q92796; [2]): 4.48
pKd (MPDZ_5, O75970; [2]): below the threshold
pKd (RHPN1, Q8TCX5; [2]): 3.76
pKd (ARHGEF12, Q9NZN5-2; [2]): 3.82
Binder: ARGPPRESEV [FAM110D, Q8TAY7]

pKd (Inadl_6, Q8NI35; [2]): below the threshold
pKd (SIPA1L2, Q9P2F8; [2]): below the threshold
pKd (RADIL, Q96JH8; [2]): below the threshold
pKd (GRIP2_6, Q9C0E4; [2]): below the threshold
pKd (LRRC7, Q96NW7; [2]): below the threshold
pKd (CARD11, Q9BXL7; [2]): below the threshold
pKd (GRIP1_3, Q9Y3R0; [2]): below the threshold
pKd (DFNB31_1, Q9P202; [2]): 3.95
pKd (TJP1_3, Q07157; [2]): below the threshold
pKd (DLG3_2, Q92796; [2]): 4.59
pKd (GRIP2_5, Q9C0E4; [2]): 3.54
pKd (SYNJ2BP, P57105; [2]): 4.85
pKd (FRMPD2_3, Q68DX3; [2]): below the threshold
pKd (SNX27, Q96L92; [2]): 4.98
pKd (ARHGEF11, O15085; [2]): 4.08
pKd (NHERF4_2, Q86UT5; [2]): 3.53
pKd (Inadl_1, Q8NI35; [2]): below the threshold
pKd (MPP7, Q5T2T1; [2]): below the threshold
pKd (MAGI2_2, Q86UL8; [2]): 4.93
pKd (HTRA1, Q92743; [2]): below the threshold
pKd (DLG3_3, Q92796; [2]): 5.08
pKd (MPDZ_5, O75970; [2]): below the threshold
pKd (RHPN1, Q8TCX5; [2]): below the threshold
pKd (ARHGEF12, Q9NZN5-2; [2]): 4.05
Binder: NTLNRKTTPV [CACNG8, Q8WXS5]
